What is called Kd is the free concentration of one partner at which half of the binding sites on the other are occupied at equilibrium, for simple one-to-one binding. A low value points to a tighter complex.

Test [1] addresses SYNAGIS®. The test is described as follows: SPR BIAcore 3000, both injected at 1 µM over immobilized SYNAGIS. In general terms: Surface plasmon resonance follows binding to a sensor surface in real time, without labels.
Test [2] concerns the target SYNAGIS®. The test is described as follows: SPR BIAcore 3000, SYNAGIS immobilized via primary amino groups, equilibrium binding of soluble SynBP01.

SYNAGIS®, sequence (VH, as listed by the source, chain 1 of 2): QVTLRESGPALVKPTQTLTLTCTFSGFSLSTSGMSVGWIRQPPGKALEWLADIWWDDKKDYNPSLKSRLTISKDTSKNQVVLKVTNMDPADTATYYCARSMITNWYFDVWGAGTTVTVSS
SYNAGIS®, sequence (VL, as listed by the source, chain 2 of 2): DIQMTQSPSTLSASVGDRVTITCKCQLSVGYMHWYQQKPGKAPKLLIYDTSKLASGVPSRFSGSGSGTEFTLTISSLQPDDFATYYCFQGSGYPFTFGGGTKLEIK

B1: SynBP01-Fc (Fc fusion, not shown: a dimerising Fc or GST)
chain: IEVKDVTDTTALITWSPPSVLVGYTIELTYGIKDVPGDRTTIDLTEDENQYSIGNLKPDTEYEVSLISVTEFGRRRSKETFTT
For B1, the fold increase in total response units compared to SynBP01 in test [1] was 6 fold.

B2: SynBP01 (designed binder)
chain: AAIEVKDVTDTTALITWSPPSVLVGYTIELTYGIKDVPGDRTTIDLTEDENQYSIGNLKPDTEYEVSLISVTEFGRRRSKETFTTGGGTLEHHHHHH
Regarding B2, in test [2], the Kd worked out at 16 µM.
